± gives the standard deviation of the averaged measurements.
Assay: total protein half-life in vivo (active degradation + dilution); higher = more stable protein
[1] = E. coli NCM3722 delta-clpP delta-lon delta-hslV, growth: N-lim chemostat, doubling time 6 h
[2] = E. coli NCM3722 delta-clpP, growth: N-lim chemostat, doubling time 6 h
[3] = E. coli NCM3722 delta-smpB, growth: N-lim chemostat, doubling time 6 h
[4] = wild type E. coli NCM3722, growth: N-lim chemostat, doubling time 12 h
[5] = E. coli NCM3722 delta-hslV, growth: N-lim chemostat, doubling time 6 h
[6] = E. coli NCM3722 delta-lon, growth: N-lim chemostat, doubling time 6 h
[7] = wild type E. coli NCM3722, growth: C-lim chemostat, doubling time 3 h
[8] = wild type E. coli NCM3722, growth: C-lim chemostat, doubling time 6 h
[9] = wild type E. coli NCM3722, growth: C-lim chemostat, doubling time 12 h
[10] = wild type E. coli NCM3722, growth: N-lim chemostat, doubling time 6 h
[11] = wild type E. coli NCM3722, growth: P-lim chemostat, doubling time 12 h
[12] = wild type E. coli NCM3722, growth: P-lim chemostat, doubling time 6 h

| Sequence | total protein half-life in vivo [1] [h] | total protein half-life in vivo [2] [h] | total protein half-life in vivo [3] [h] | total protein half-life in vivo [4] [h] | total protein half-life in vivo [5] [h] | total protein half-life in vivo [6] [h] | total protein half-life in vivo [7] [h] | total protein half-life in vivo [8] [h] | total protein half-life in vivo [9] [h] | total protein half-life in vivo [10] [h] | total protein half-life in vivo [11] [h] | total protein half-life in vivo [12] [h] |
| --- | --- | --- | --- | --- | --- | --- | --- | --- | --- | --- | --- | --- |
| MATVNKQAIAAAFGRAAAHYEQHADLQRQSADALLAMLPQRKYTHVLDAGCGPGWMSRHWRERHAQVTALDLSPPMLVQARQKDAADHYLAGDIESLPLATATFDLAWSNLAVQWCGNLSTALRELYRVVRPKGVVAFTTLVQGSLPELHQAWQAVDERPHANRFLPPDEIEQSLNGVHYQHHIQPITLWFDDALSAMRSLKGIGATHLHEGRDPRILTRSQLQRLQLAWPQQQGRYPLTYHLFLGVIARE | 4.79 ± 0.22 | 2.85 ± 0.37 | 0.556 | 1.13 |  |  |  |  |  |  |  |  |
| MTDVLLCVGNSMMGDDGAGPLLAEKCAAAPKGNWVVIDGGSAPENDIVAIRELRPTRLLIVDATDMGLNPGEIRIIDPDDIAEMFMMTTHNMPLNYLIDQLKEDIGEVIFLGIQPDIVGFYYPMTQPIKDAVETVYQRLEGWEGNGGFAQLAVEEE [P0AEV9] | 4.89 | 4.16 | 3.72 ± 0.15 | 6.23 | 3.67 ± 0.094 | 4.17 | 3.29 ± 0.42 | 5.01 ± 0.2 | 8.74 | 4.6 | 9.42 ± 0.22 |  |
| MRHIFQRLLPRRLWLAGLPCLALLGCVQNHNKPAIDTPAEEKIPVYQLADYLSTECSDIWALQGKSTETNPLYWLRAMDCADRLMPAQSRQQARQYDDGSWQNTFKQGILLADAKITPYERRQLVARIEALSTEIPAQVRPLYQLWRDGQALQLQLAEERQRYSKLQQSSDSELDTLRQQHHVLQQQLELTTRKLENLTDIERQLSTRKPAGNFSPDTPHESEKPAPSTHEVTPDEP [P0AD44] | 6.11 ± 0.099 | 6.44 ± 0.17 | 6.12 ± 0.2 | 14 ± 1.2 | 6.18 ± 0.37 | 6.9 ± 0.22 | 3.34 ± 0.092 | 6.14 ± 0.27 | 13.1 ± 0.57 | 6.28 ± 1 | 12.2 ± 3.1 |  |
| MANPEQLEEQREETRLIIEELLEDGSDPDALYTIEHHLSADDLETLEKAAVEAFKLGYEVTDPEELEVEDGDIVICCDILSECALNADLIDAQVEQLMTLAEKFDVEYDGWGTYFEDPNGEDGDDEDFVDEDDDGVRH [P0AF90] | 5.62 ± 0.39 | 4 ± 0.52 | 3.73 ± 0.12 | 7.72 ± 1.9 | 3.94 ± 0.18 | 5.36 ± 0.26 | 2.08 | 5.51 ± 1.6 | 8.63 ± 2.2 | 4.14 | 6.57 ± 0.075 | 2.61 ± 0.039 |
| MKKIPLGTTDITLSRMGLGTWAIGGGPAWNGDLDRQICIDTILEAHRCGINLIDTAPGYNFGNSEVIVGQALKKLPREQVVVETKCGIVWERKGSLFNKVGDRQLYKNLSPESIREEVAASLQRLGIDYIDIYMTHWQSVPPFFTPIAETVAVLNELKSEGKIRAIGAANVDADHIREYLQYGELDIIQAKYSILDRAMENELLPLCRDNGIVVQVYSPLEQGLLTGTITRDYVPGGARANKVWFQRENMLKVIDMLEQWQPLCARYQCTIPTLALAWILKQSDLISILSGATAPEQVRENVAALNINLSDADATLMREMAEALER | 3.71 ± 1.3 |  | 4.19 ± 0.18 | 6.75 | 4.29 ± 0.48 |  | 2.96 ± 0.2 | 5.64 ± 1.4 | 8.09 ± 1.9 | 3.97 ± 0.2 | 11.9 ± 0.44 | 6.344 ± 0.018 |
| MMILSILATVVLLGALFYHRVSLFISSLILLAWTAALGVAGLWSAWVLVPLAIILVPFNFAPMRKSMISAPVFRGFRKVMPPMSRTEKEAIDAGTTWWEGDLFQGKPDWKKLHNYPQPRLTAEEQAFLDGPVEEACRMANDFQITHELADLPPELWAYLKEHRFFAMIIKKEYGGLEFSAYAQSRVLQKLSGVSGILAITVGVPNSLGPGELLQHYGTDEQKDHYLPRLARGQEIPCFALTSPEAGSDAGAIPDTGIVCMGEWQGQQVLGMRLTWNKRYITLAPIATVLGLAFKLSDPEKLLGGAEDLGITCALIPTTTPGVEIGRRHFPLNVPFQNGPTRGKDVFVPIDYIIGGPKMAGQGWRMLVECLSVGRGITLPSNSTGGVKSVALATGAYAHIRRQFKISIGKMEGIEEPLARIAGNAYVMDAAASLITYGIMLGEKPAVLSAIVKYHCTHRGQQSIIDAMDITGGKGIMLGQSNFLARAYQGAPIAITVEGANILTRSMMIFGQGAIRCHPYVLEEMEAAKNNDVNAFDKLLFKHIGHVGSNKVRSFWLGLTRGLTSSTPTGDATKRYYQHLNRLSANLALLSDVSMAVLGGSLKRRERISARLGDILSQLYLASAVLKRYDDEGRNEADLPLVHWGVQDALYQAEQAMDDLLQNFPNRVVAGLLNVVIFPTGRHYLAPSDKLDHKVAKILQVPNATRSRIGRGQYLTPSEHNPVGLLEEALVDVIAADPIHQRICKELGKNLPFTRLDELAHNALVKGLIDKDEAAILVKAEESRLRSINVDDFDPEELATKPVKLPEKVRKVEAA | 6.66 ± 0.19 | 5.65 ± 0.067 | 1.82 ± 0.079 | 3.64 ± 0.49 | 2.2 ± 0.21 | 2.48 ± 0.52 | 1.43 ± 0.11 | 1.86 ± 0.12 | 2.9 ± 0.51 | 2.2 ± 0.1 | 3.65 ± 0.59 | 2.01 ± 0.24 |
